Test results from patent publication CN116178545A (GUANGDONG FEIPENG PHARMACEUTICAL CO LTD, dated 2023).
Where a chain is given by its changes, count along the chain named.

T1: 重组人PD-L2蛋白 (human, UniProt Q9BQ51 20-219)
T1 construct: The words 携带hFc标签的 stand before the first protein of the list; also called Acrobiosystem Cat.PD2-H5251
T1 sequence (looked up): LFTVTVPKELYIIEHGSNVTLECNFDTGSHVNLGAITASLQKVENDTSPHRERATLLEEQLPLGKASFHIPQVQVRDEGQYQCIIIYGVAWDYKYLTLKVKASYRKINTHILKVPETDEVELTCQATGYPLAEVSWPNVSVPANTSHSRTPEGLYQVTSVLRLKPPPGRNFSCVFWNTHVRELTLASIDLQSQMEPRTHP

T2: 重组人ICOS蛋白 (human, UniProt Q9Y6W8 21-140)
T2 construct: The words 携带hFc标签的 stand before the first protein of the list; also called Acrobiosystem Cat.ICS-H5250
T2 sequence (looked up): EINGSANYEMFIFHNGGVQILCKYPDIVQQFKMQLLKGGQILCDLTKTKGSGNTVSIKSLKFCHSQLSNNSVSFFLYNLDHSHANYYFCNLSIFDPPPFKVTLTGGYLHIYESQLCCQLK

T3: 重组人ICOSLG蛋白 (human, UniProt O75144 19-258)
T3 construct: The words 携带hFc标签的 stand before the first protein of the list; also called Acrobiosystem Cat.B72-H5254
T3 sequence (looked up): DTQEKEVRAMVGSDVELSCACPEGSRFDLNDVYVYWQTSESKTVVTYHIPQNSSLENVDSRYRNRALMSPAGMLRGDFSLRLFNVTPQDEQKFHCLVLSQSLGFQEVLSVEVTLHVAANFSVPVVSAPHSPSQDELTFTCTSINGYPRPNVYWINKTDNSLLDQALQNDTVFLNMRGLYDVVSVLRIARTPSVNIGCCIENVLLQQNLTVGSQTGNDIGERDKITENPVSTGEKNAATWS

T4: 重组人CD276蛋白 (human, UniProt Q5ZPR3-2 29-245)
T4 construct: The words 携带hFc标签的 stand before the first protein of the list; also called B7-H3; Acrobiosystem Cat.B73-H5253
T4 sequence (looked up): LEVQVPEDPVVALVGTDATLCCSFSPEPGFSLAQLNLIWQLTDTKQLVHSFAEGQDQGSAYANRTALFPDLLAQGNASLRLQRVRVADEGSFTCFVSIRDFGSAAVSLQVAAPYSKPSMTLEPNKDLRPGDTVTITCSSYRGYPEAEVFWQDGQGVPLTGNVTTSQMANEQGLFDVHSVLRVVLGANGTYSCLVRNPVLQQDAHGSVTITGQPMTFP

T5: 重组人CD86蛋白 (human, UniProt P42081 26-247)
T5 construct: The words 携带hFc标签的 stand before the first protein of the list; also called Acrobiosystem Cat.CD6-H5257
T5 sequence (looked up): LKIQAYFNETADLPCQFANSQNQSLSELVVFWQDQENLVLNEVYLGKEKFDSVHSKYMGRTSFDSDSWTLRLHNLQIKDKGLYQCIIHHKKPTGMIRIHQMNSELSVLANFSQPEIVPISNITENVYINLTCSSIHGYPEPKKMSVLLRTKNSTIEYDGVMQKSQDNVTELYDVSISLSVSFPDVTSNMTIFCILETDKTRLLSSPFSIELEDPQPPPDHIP

B1: 176L1H2 (antibody, V domains shown)
VH: QVQLQESGPGLVKPSETLSLTCAVYGDSITSGYWNWIRKPPGKKLEYIGYISYTGSTYQNPSLKSRITMSRDTSKNQYYLKLSSVTAADTAVYYCARSRAWIRTYFDYWGQGTLVTVSS
VL: EIVLTQSPDFQSVTPKEKVTITCSVSSSISSSNLHWYQQKPDQSPKLWIYGTSNLASGVPSRFSGSGSGTDYTLTINSLEAEDAATYYCQQWSSYPLTFGQGTKLEIKR
notes: Whole humanized mAb expressed in 293 cells; detected with anti-human IgG; also called 抗人PD-L1人源化抗体176L1H2
B2: 176L1H1 (antibody, V domains shown)
VH: B1 VH with K44G
VL: B1 VL
notes: Whole humanized mAb expressed in 293 cells, protein A purified; hIgG1 isotype control; detected with anti-human IgG; also called 抗人PD-L1人源化抗体176L1H1
B3: 176L1H3 (antibody, V domains shown)
VH: B1 VH with M69F
VL: B1 VL
notes: Whole humanized mAb expressed in 293 cells; detected with anti-human IgG; also called 抗人PD-L1人源化抗体176L1H3
B4: 176L2H1 (antibody, V domains shown)
VH: B1 VH with K44G
VL: B1 VL with L47P
notes: Whole humanized mAb expressed in 293 cells; detected with anti-human IgG; also called 抗人PD-L1人源化抗体176L2H1
B5: 176L2H2 (antibody, V domains shown)
VH: B1 VH
VL: B1 VL with L47P
notes: Whole humanized mAb expressed in 293 cells; detected with anti-human IgG; also called 抗人PD-L1人源化抗体176L2H2
B6: 176L2H3 (antibody, V domains shown)
VH: B1 VH with M69F
VL: B1 VL with L47P
notes: Whole humanized mAb expressed in 293 cells; detected with anti-human IgG; also called 抗人PD-L1人源化抗体176L2H3
B7: 176L3H2 (antibody, V domains shown)
VH: B1 VH
VL: B1 VL with L47P, T73S
notes: Whole humanized mAb expressed in 293 cells; detected with anti-human IgG; also called 抗人PD-L1人源化抗体176L3H2
B8: 176L6H5 (antibody, V domains shown)
VH: B1 VH with Q1E, K44G, I48M, M69F, V92T
VL: B1 VL with W48L, Y72F
notes: Whole humanized mAb expressed in 293 cells; detected with anti-human IgG; also called 抗人PD-L1人源化抗体176L6H5
B9: F016-870-hIgG1 (antibody, V domains shown)
VH: EVQLQESGPSLVKPSQTLSLTCSVTGDSITSGYWNWIRKFPGNKLEYMGYISYTGSTYQNPSLKSRISFTRDTSKNQYYLQLSSVTTEDTATYYCARSRAWIRTYFDYWGQGTTLTVSS
VL: EIVLTQSPALMAASPGEKVTITCSVSSSISSSNLHWYQQKSETSPKPWIYGTSNLASGVPVRFSGSGSGTSYSLTISSMEAEDAATYYCQQWSSYPLTFGAGTKLELKR

Key:
[1] = molecular target: T1, 重组人PD-L2蛋白; experiment: ELISA, protein coated at 1μg/ml
[2] = molecular target: T6, 重组人PD-1蛋白(自产) (human, UniProt Q15116 25-167); experiment: ELISA, protein coated at 1μg/ml
T6 construct: The words 携带hFc标签的 stand before the first protein of the list

[3] = molecular target: T2, 重组人ICOS蛋白; experiment: ELISA, protein coated at 1μg/ml
[4] = molecular target: T3, 重组人ICOSLG蛋白; experiment: ELISA, protein coated at 1μg/ml
[5] = molecular target: T4, 重组人CD276蛋白; experiment: ELISA, protein coated at 1μg/ml
[6] = molecular target: T5, 重组人CD86蛋白; experiment: ELISA, protein coated at 1μg/ml
[7] = molecular target: T7, 重组人CD28蛋白 (human, UniProt P10747 19-152); experiment: ELISA, protein coated at 1μg/ml
T7 construct: The words 携带hFc标签的 stand before the first protein of the list; also called Acrobiosystem Cat.CD8-H525a

[8] = molecular target: T8, 重组人CTLA-4蛋白 (human, UniProt P16410 37-162); experiment: ELISA, protein coated at 1μg/ml
T8 construct: The words 携带hFc标签的 stand before the first protein of the list; also called Acrobiosystem Cat.CT4-H5255

[9] = molecular target: T9, 小鼠PD-L1 (on CHO cells) (mouse, UniProt Q9EP73 19-290); experiment: flow cytometry on CHO-mPD-L1 cells
T9 construct: whole, on cells; also called CHO-mPD-L1稳定细胞株; 稳定表达全长小鼠PD-L1的CHO

[10] = molecular target: T10, 人PD-L1 (on cells) (human, UniProt Q9NZQ7 19-290); experiment: flow cytometry on IFNγ-stimulated A375 cells
T10 construct: whole, on cells; One molecule for human PD-L1 on CHO-hPD-L1, on IFNγ-stimulated A375 and on CHO-hPD-L1-OKT3 cells; the cell is named under assay; also called CHO-hPD-L1稳定细胞株; 稳定表达人PD-L1的CHO

[11] = molecular target: T11, hPD-L1-his (human, UniProt Q9NZQ7 19-238); experiment: BLI (ForteBIO), hPD-L1-his on anti-Penta-HIS sensor
T11 construct: extracellular domain; also called 携带his标签的人PD-L1胞外区重组蛋白; not shown: his tag
T11 sequence (Q9NZQ7 19-238): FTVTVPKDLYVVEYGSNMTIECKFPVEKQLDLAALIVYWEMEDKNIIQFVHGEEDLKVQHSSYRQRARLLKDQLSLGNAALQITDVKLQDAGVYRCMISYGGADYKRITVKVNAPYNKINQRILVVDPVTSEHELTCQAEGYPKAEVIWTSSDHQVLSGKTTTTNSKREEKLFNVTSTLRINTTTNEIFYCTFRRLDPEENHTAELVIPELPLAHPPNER

T10 sequence (Q9NZQ7 19-290): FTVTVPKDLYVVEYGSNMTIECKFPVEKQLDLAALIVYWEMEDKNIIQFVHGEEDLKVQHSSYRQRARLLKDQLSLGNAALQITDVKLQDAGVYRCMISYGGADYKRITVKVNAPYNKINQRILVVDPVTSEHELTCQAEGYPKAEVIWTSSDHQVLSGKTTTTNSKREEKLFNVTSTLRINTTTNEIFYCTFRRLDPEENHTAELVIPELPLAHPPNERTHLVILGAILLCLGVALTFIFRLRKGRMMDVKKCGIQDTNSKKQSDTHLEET
T9 sequence (Q9EP73 19-290): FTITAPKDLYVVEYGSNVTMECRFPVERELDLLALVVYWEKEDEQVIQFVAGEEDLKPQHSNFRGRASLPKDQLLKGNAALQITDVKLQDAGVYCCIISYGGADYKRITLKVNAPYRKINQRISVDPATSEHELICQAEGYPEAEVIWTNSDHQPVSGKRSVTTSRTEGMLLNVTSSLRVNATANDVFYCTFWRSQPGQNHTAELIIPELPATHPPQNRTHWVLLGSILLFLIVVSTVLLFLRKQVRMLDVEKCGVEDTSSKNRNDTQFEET
T6 sequence (Q15116 25-167): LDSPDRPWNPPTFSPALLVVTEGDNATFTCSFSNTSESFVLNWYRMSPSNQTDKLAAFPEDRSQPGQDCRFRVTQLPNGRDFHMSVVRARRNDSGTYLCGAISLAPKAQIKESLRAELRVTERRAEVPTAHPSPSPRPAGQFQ
T8 sequence (P16410 37-162): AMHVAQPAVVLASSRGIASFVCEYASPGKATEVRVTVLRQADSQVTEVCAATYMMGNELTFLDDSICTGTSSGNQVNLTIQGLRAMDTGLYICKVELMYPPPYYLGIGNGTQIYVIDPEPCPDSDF

Row | Binder | binding result [1] | binding result [2] | binding result [3] | binding result [4] | binding result [5] | binding result [6] | binding result [7] | binding result [8] | binding result [9] | EC50 [10] [nM] | Kd [11] [nM]
1 | B1 | no binding (tested: 10μg/ml) | no binding (tested: 10μg/ml) | no binding (tested: 10μg/ml) | no binding (tested: 10μg/ml) | no binding (tested: 10μg/ml) | no binding (tested: 10μg/ml) | no binding (tested: 10μg/ml) | no binding (tested: 10μg/ml) | no binding (tested: 20μg/ml) | ~0.2 | –
2 | B2 | no binding (tested: 10μg/ml) | no binding (tested: 10μg/ml) | no binding (tested: 10μg/ml) | no binding (tested: 10μg/ml) | no binding (tested: 10μg/ml) | no binding (tested: 10μg/ml) | no binding (tested: 10μg/ml) | no binding (tested: 10μg/ml) | no binding (tested: 20μg/ml) | ~0.2 | –
3 | B3 | no binding (tested: 10μg/ml) | no binding (tested: 10μg/ml) | no binding (tested: 10μg/ml) | no binding (tested: 10μg/ml) | no binding (tested: 10μg/ml) | no binding (tested: 10μg/ml) | no binding (tested: 10μg/ml) | no binding (tested: 10μg/ml) | no binding (tested: 20μg/ml) | ~0.2 | –
4 | B4 | no binding (tested: 10μg/ml) | no binding (tested: 10μg/ml) | no binding (tested: 10μg/ml) | no binding (tested: 10μg/ml) | no binding (tested: 10μg/ml) | no binding (tested: 10μg/ml) | no binding (tested: 10μg/ml) | no binding (tested: 10μg/ml) | no binding (tested: 20μg/ml) | ~0.2 | –
5 | B5 | no binding (tested: 10μg/ml) | no binding (tested: 10μg/ml) | no binding (tested: 10μg/ml) | no binding (tested: 10μg/ml) | no binding (tested: 10μg/ml) | no binding (tested: 10μg/ml) | no binding (tested: 10μg/ml) | no binding (tested: 10μg/ml) | no binding (tested: 20μg/ml) | ~0.2 | –
6 | B6 | no binding (tested: 10μg/ml) | no binding (tested: 10μg/ml) | no binding (tested: 10μg/ml) | no binding (tested: 10μg/ml) | no binding (tested: 10μg/ml) | no binding (tested: 10μg/ml) | no binding (tested: 10μg/ml) | no binding (tested: 10μg/ml) | no binding (tested: 20μg/ml) | ~0.2 | –
7 | B7 | no binding (tested: 10μg/ml) | no binding (tested: 10μg/ml) | no binding (tested: 10μg/ml) | no binding (tested: 10μg/ml) | no binding (tested: 10μg/ml) | no binding (tested: 10μg/ml) | no binding (tested: 10μg/ml) | no binding (tested: 10μg/ml) | no binding (tested: 20μg/ml) | ~0.2 | –
8 | B8 | no binding (tested: 10μg/ml) | no binding (tested: 10μg/ml) | no binding (tested: 10μg/ml) | no binding (tested: 10μg/ml) | no binding (tested: 10μg/ml) | no binding (tested: 10μg/ml) | no binding (tested: 10μg/ml) | no binding (tested: 10μg/ml) | no binding (tested: 20μg/ml) | ~0.2 | 0.0302
9 | B9 | – | – | – | – | – | – | – | – | – | – | < 0.001
